This is an account of results in PMC3570467.

The test concerns the target a representative mIgG1 mAb (used for the KD determinations; not told which) (mouse). Briefly: SPR; BIAcore 2000; mIgG1 mAb immobilised on CM-5; Z variants serially diluted 250 nM to 64 µM; KD for 1:1 interaction from equilibrium response values. Background: In SPR one partner is held on a chip, and binding of the other changes the refractive index at the surface.
“ZF5R, Z domain variant with F5R substitution (designed binder)” displayed a Kd of 10 µM.
Turning to “wild type Z domain (ZWT), staphylococcal protein A-derived 58-residue three-helix bundle domain (designed binder)”, the Kd was > 100 µM.
In the case of “ZF5I, Z domain variant with Phe to Ile substitution at position 5 (designed binder)” it was 10 µM.

One may read the Kd as the constant that tells how readily two partners part at equilibrium. Lower therefore signals a tighter complex.
